Series [1] addresses T1, re-constituted (composite) NIA1 (Arabidopsis thaliana, UniProt P11832).
T1 construct: both from E. coli, IMAC purified; with Nitrate reductase [NADH]
T1 sequence (P11832 1-627): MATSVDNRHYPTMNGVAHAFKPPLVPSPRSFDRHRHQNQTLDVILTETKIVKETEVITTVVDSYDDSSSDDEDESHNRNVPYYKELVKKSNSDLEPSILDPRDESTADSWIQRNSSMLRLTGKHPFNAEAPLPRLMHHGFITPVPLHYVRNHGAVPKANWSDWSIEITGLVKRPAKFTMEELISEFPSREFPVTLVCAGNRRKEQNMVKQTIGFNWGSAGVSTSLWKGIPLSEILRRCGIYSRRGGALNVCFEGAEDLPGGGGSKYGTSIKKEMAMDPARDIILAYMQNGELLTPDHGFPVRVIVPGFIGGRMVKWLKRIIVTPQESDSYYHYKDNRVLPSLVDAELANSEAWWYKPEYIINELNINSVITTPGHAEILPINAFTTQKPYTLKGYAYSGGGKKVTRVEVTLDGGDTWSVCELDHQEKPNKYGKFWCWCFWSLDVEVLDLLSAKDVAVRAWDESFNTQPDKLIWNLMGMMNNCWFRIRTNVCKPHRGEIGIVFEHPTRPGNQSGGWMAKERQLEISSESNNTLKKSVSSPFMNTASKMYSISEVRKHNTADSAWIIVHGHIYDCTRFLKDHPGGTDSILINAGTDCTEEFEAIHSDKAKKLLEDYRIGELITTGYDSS
T1 sequence (P11832 628-917 partner): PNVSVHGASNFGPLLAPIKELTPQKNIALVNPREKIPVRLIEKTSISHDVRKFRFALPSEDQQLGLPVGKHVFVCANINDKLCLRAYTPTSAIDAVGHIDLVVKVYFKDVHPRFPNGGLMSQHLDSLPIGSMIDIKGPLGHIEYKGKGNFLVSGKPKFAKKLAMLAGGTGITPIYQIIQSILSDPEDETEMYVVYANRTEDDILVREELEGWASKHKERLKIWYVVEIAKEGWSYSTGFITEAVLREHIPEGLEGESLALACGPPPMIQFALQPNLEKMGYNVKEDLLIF
The series is described as follows: NO analyzer, inhibition of nitrite reduction (NO production). Format: biochemical.

The target in series [2] is T2, re-constituted (composite) NIA2 (Arabidopsis thaliana, UniProt P11035).
T2 construct: both from E. coli, IMAC purified; with Nitrate reductase [NADH]
T2 sequence (P11035 1-625): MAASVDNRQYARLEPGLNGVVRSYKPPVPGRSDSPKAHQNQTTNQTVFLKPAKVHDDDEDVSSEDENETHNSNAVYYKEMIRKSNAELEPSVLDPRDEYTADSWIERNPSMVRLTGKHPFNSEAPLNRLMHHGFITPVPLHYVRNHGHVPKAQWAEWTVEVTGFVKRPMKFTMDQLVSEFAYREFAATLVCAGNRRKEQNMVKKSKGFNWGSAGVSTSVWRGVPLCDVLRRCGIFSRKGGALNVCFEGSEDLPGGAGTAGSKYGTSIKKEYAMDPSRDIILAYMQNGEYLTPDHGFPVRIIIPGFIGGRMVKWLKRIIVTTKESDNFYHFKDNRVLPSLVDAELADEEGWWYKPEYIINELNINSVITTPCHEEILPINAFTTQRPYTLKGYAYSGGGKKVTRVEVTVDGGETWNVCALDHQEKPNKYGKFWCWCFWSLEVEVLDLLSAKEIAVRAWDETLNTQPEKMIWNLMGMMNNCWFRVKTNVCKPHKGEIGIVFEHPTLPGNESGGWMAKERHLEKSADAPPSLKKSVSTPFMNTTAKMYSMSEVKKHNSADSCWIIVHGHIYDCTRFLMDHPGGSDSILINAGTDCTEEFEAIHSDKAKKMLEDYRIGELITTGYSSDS
T2 sequence (P11035 626-917 partner): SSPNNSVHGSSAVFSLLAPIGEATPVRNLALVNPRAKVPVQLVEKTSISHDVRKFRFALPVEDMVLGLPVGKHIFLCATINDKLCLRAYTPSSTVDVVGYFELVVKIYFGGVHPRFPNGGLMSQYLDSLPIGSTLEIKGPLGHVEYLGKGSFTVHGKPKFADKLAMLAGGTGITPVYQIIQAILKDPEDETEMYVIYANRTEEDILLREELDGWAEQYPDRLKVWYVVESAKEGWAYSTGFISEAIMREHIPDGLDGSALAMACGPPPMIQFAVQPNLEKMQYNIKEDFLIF
The description is as above. Format: biochemical.

Substrate in series [3]: O=NO
In words: BV:nitrite steady-state assay, A595. Format: biochemical, Arabidopsis thaliana. Particulars: reduced benzyl viologen as electron donor, pH 7.5, 22-25 °C, anaerobic. From the text:
BV:nitrite steady-state assay, A595 on NIA2-Mo-heme

In the case of `O=[N+]([O-])O` [nitrate], the IC50 in series [1] is 12 ± 1.7 µM; in series [2] it was 36 ± 2.7 µM.

B1: NIA2-Mo-heme (Arabidopsis thaliana) (protein)
chain: MAASVDNRQYARLEPGLNGVVRSYKPPVPGRSDSPKAHQNQTTNQTVFLKPAKVHDDDEDVSSEDENETHNSNAVYYKEMIRKSNAELEPSVLDPRDEYTADSWIERNPSMVRLTGKHPFNSEAPLNRLMHHGFITPVPLHYVRNHGHVPKAQWAEWTVEVTGFVKRPMKFTMDQLVSEFAYREFAATLVCAGNRRKEQNMVKKSKGFNWGSAGVSTSVWRGVPLCDVLRRCGIFSRKGGALNVCFEGSEDLPGGAGTAGSKYGTSIKKEYAMDPSRDIILAYMQNGEYLTPDHGFPVRIIIPGFIGGRMVKWLKRIIVTTKESDNFYHFKDNRVLPSLVDAELADEEGWWYKPEYIINELNINSVITTPCHEEILPINAFTTQRPYTLKGYAYSGGGKKVTRVEVTVDGGETWNVCALDHQEKPNKYGKFWCWCFWSLEVEVLDLLSAKEIAVRAWDETLNTQPEKMIWNLMGMMNNCWFRVKTNVCKPHKGEIGIVFEHPTLPGNESGGWMAKERHLEKSADAPPSLKKSVSTPFMNTTAKMYSMSEVKKHNSADSCWIIVHGHIYDCTRFLMDHPGGSDSILINAGTDCTEEFEAIHSDKAKKMLEDYRIGELITTGYSSDS
notes: N-terminal Moco + hinge 1 + heme domain fragment, residues 1-625; E. coli TP1004, Ni-NTA and SEC purified
On to B1, for which, in series [3], the Km turned out to be 13.7 ± 3.3 µM and the kcat came to 1.8 ± 0.3 s⁻¹.

B2: NIA2-Mo-heme (Arabidopsis thaliana; H600A) (protein)
chain: MAASVDNRQYARLEPGLNGVVRSYKPPVPGRSDSPKAHQNQTTNQTVFLKPAKVHDDDEDVSSEDENETHNSNAVYYKEMIRKSNAELEPSVLDPRDEYTADSWIERNPSMVRLTGKHPFNSEAPLNRLMHHGFITPVPLHYVRNHGHVPKAQWAEWTVEVTGFVKRPMKFTMDQLVSEFAYREFAATLVCAGNRRKEQNMVKKSKGFNWGSAGVSTSVWRGVPLCDVLRRCGIFSRKGGALNVCFEGSEDLPGGAGTAGSKYGTSIKKEYAMDPSRDIILAYMQNGEYLTPDHGFPVRIIIPGFIGGRMVKWLKRIIVTTKESDNFYHFKDNRVLPSLVDAELADEEGWWYKPEYIINELNINSVITTPCHEEILPINAFTTQRPYTLKGYAYSGGGKKVTRVEVTVDGGETWNVCALDHQEKPNKYGKFWCWCFWSLEVEVLDLLSAKEIAVRAWDETLNTQPEKMIWNLMGMMNNCWFRVKTNVCKPHKGEIGIVFEHPTLPGNESGGWMAKERHLEKSADAPPSLKKSVSTPFMNTTAKMYSMSEVKKHNSADSCWIIVHGHIYDCTRFLMDHPGGSDSILINAGTDCTEEFEAIASDKAKKMLEDYRIGELITTGYSSDS
notes: as for B1
As to B2, in series [3] (heme-coordinating His mutated), the Km is 10.3 ± 1.2 µM and the kcat came out at 1.2 ± 0.02 s⁻¹.

These data come from publication PMC6473903, “Isoform-Specific NO Synthesis by Arabidopsis thaliana Nitrate Reductase” (Plants, 2019).
